From patent publication US20230235027A1

Key:
E484K (SARS-CoV-2) = assay: kinetic measurement, method not stated; table row E484K
A475V (SARS-CoV-2) = assay: kinetic measurement, method not stated; table row A475V
L452R (SARS-CoV-2) = assay: kinetic measurement, method not stated; table row L452R
B.1.351 (Gamma) = assay: kinetic measurement, method not stated; table row B.1.351 (Gamma)
F490L (SARS-CoV-2) = assay: kinetic measurement, method not stated; table row F490L
K417N (SARS-CoV-2) = assay: kinetic measurement, method not stated; table row K417N
N439K (SARS-CoV-2) = assay: kinetic measurement, method not stated; table row N439K
N501Y (SARS-CoV-2) = assay: kinetic measurement, method not stated; table row N501Y

Sequence of NIH-CoVnb-112 (VHH) (VHH): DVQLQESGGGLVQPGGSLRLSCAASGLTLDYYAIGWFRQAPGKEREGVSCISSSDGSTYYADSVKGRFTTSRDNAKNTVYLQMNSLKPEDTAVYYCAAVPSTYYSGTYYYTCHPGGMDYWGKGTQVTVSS

NIH-CoVnb-112 (VHH)
koff (E484K (SARS-CoV-2)): 0.000304 s⁻¹
kon (E484K (SARS-CoV-2)): 256000 M⁻¹ s⁻¹
koff (A475V (SARS-CoV-2)): 0.000209 s⁻¹
kon (A475V (SARS-CoV-2)): 169000 M⁻¹ s⁻¹
koff (L452R (SARS-CoV-2)): 0.00127 s⁻¹
kon (L452R (SARS-CoV-2)): 209000 M⁻¹ s⁻¹
koff (B.1.351 (Gamma)): 0.000705 s⁻¹
kon (B.1.351 (Gamma)): 201000 M⁻¹ s⁻¹
koff (F490L (SARS-CoV-2)): 0.000926 s⁻¹
kon (F490L (SARS-CoV-2)): 158000 M⁻¹ s⁻¹
koff (K417N (SARS-CoV-2)): 0.000157 s⁻¹
kon (K417N (SARS-CoV-2)): 120000 M⁻¹ s⁻¹
koff (N439K (SARS-CoV-2)): 0.000302 s⁻¹
kon (N439K (SARS-CoV-2)): 189000 M⁻¹ s⁻¹
koff (N501Y (SARS-CoV-2)): 0.000428 s⁻¹
kon (N501Y (SARS-CoV-2)): 153000 M⁻¹ s⁻¹
